Key:
His249 = His249 (UniProt position 249, PGVGTHVADCI); experiment: NMR; details: 25 °C; 50 mM NaCl; 20 mM sodium phosphate (starting pH 6.8; pH adjusted with HCl or NaOH); 0.1 mM 13C-labelled hOGG1(K249H); no DNA is mentioned in the sample (apparently free enzyme)
Asp268 = Asp268 (UniProt position 268, QAVPVDVHMWH); experiment: kinetics; details: 15 °C; 100 mM NaCl; 50 mM citric acid-Na2HPO4; Single-turnover conditions: 10 µM hOGG1(K249H) with 5.0 µM oxoG-containing DNA duplex F-oG23/C23 (substrate-bound enzyme)

For “8-oxoguanine DNA glycosylase 1 (hOGG1), K249H mutant (Homo sapiens; K249H)”, the pKa (His249) was 5.54 ± 0.05 and the pKa (Asp268) was 4.5 ± 0.39.

— paper PMC12318605
